Experimental findings from the supplement of paper PMC9732359 are described below.

The data set can be described thus: protein stability index of a GFP-peptide fusion (yeast GPS) (PSI 1-4); higher = more stable; sorted into four equal gates, so the index is relative within each strain. The method in brief:
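Mid-log yeast cultures in leucine-free medium, carrying a pooled plasmid library, were sorted into four equal gates by their GFP/Cherry fluorescence ratio. Each plasmid expressed Cherry along with GFP fused upstream of a tiled 17-residue yeast protein peptide. Plasmids recovered from each gate were PCR-amplified and Illumina-sequenced, with reads assigned to strains by barcodes. The protein stability index was obtained by summing each gate's read frequency weighted by its gate number.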

± gives the uncertainty stated by the source.

Turning to SGEDAEEELWNSPSKGN [YIL149C/MLP2], the protein stability index by setting is: (doa10∆) 3.15 ± 0.13; (pdr5∆) 3.25 ± 0.084; (san1∆) 3.28 ± 0.058; (ubr1∆) 3.21 ± 0.065.

Turning to SGIRLIEPELFNGYNPE [FAS2], the protein stability index worked out at 2.81 ± 0.067 (doa10∆), 2.89 ± 0.074 (pdr5∆), 2.82 ± 0.073 (san1∆) and 2.83 ± 0.045 (ubr1∆).

Take SGKRKPTKAAQRARDQD [GAL11]: the protein stability index by setting is: (pdr5∆) 3.65 ± 0.16; (san1∆) 3.25 ± 0.28; (ubr1∆) 3.58 ± 0.15.

SGKSNFFAAIRFVLSDD [SMC3]: the protein stability index runs as follows: (doa10∆) 3.02 ± 0.11; (pdr5∆) 3.36 ± 0.096; (san1∆) 3.38 ± 0.08; (ubr1∆) 3.22 ± 0.052.

Regarding SGNDSMAGKVLILTSHN [BRR2], the protein stability index (doa10∆) amounted to 2.13 ± 0.058, the protein stability index (pdr5∆) is 2.28 ± 0.072, the protein stability index (san1∆) is 1.63 ± 0.091 and the protein stability index (ubr1∆) came to 2.36 ± 0.089.

With SGRNIHLAVVCVDDNSK [SSN2], the protein stability index came to 2.14 ± 0.087 (doa10∆), 1.61 ± 0.045 (pdr5∆), 1.48 ± 0.085 (san1∆) and 2.96 ± 0.045 (ubr1∆).

Consider SGTDGSTIGILLLTIQL [SRP72], for which the protein stability index worked out at 3.09 ± 0.064 (doa10∆), 2.91 ± 0.064 (pdr5∆), 3.35 ± 0.054 (san1∆) and 3.15 ± 0.057 (ubr1∆).

In the case of SGWTPFHIACSVGNLEV [NAS6], the protein stability index (doa10∆) was found to be 1.8 ± 0.095, the protein stability index (pdr5∆) turned out to be 1.89 ± 0.074, the protein stability index (san1∆) is 1.68 ± 0.1 and the protein stability index (ubr1∆) came to 1.94 ± 0.11.

As for SHAVEFFMSERSSRLHI [YML103C/NUP188], the protein stability index is, setting by setting: (doa10∆) 2.5 ± 0.067; (pdr5∆) 2.73 ± 0.079; (san1∆) 2.75 ± 0.087; (ubr1∆) 2.4 ± 0.049.

Turning to SHEERIEAIDEYNKPNS [ISW2], the protein stability index reads like this: (doa10∆) 2.01 ± 0.063; (pdr5∆) 2.12 ± 0.054; (san1∆) 1.84 ± 0.076; (ubr1∆) 2.94 ± 0.039.

Take SIEFAKREKRVFLKHSL [RPN6]: the protein stability index (doa10∆) is 3.24 ± 0.16, the protein stability index (pdr5∆) was 3.4 ± 0.17, the protein stability index (san1∆) came out at 2.87 ± 0.11 and the protein stability index (ubr1∆) was 2.7 ± 0.098.

With SIEMEEETDDEDKQNIE [RRI2], the protein stability index reads like this: (doa10∆) 3.25 ± 0.13; (pdr5∆) 3.32 ± 0.11; (san1∆) 3.39 ± 0.062; (ubr1∆) 3.19 ± 0.061.

Consider SIGASIADLASLEQLLG [YCS4], for which the protein stability index is, setting by setting: (doa10∆) 2.84 ± 0.099; (pdr5∆) 2.94 ± 0.064; (san1∆) 2.9 ± 0.076; (ubr1∆) 2.92 ± 0.033.

SIHAHGSTDVGYYLSLG [PUP1]: the protein stability index was found to be 2.62 ± 0.069 (doa10∆), 2.79 ± 0.069 (pdr5∆), 2.91 ± 0.065 (san1∆) and 2.24 ± 0.053 (ubr1∆).

In the case of SILEHSGIRLIEPELFN [FAS2], the protein stability index is, setting by setting: (doa10∆) 2.67 ± 0.068; (pdr5∆) 2.99 ± 0.061; (san1∆) 2.76 ± 0.058; (ubr1∆) 2.86 ± 0.039.

In the case of SIMAVTFKDGVILGADS [PRE3], the protein stability index reads like this: (doa10∆) 1.66 ± 0.1; (pdr5∆) 2.61 ± 0.094; (san1∆) 2.94 ± 0.086; (ubr1∆) 2.59 ± 0.14.

On to SIQPIESNIKMTLEDNN [SSN2], for which the protein stability index (doa10∆) worked out at 3.12 ± 0.077, the protein stability index (pdr5∆) was determined as 3.08 ± 0.075, the protein stability index (san1∆) is 2.81 ± 0.053 and the protein stability index (ubr1∆) came to 2.97 ± 0.043.

In the case of SIVLDSEHFDVNDNPDI [DIS3], the protein stability index is, setting by setting: (doa10∆) 2.96 ± 0.053; (pdr5∆) 3.11 ± 0.053; (san1∆) 2.74 ± 0.093; (ubr1∆) 3.1 ± 0.046.

Sequence SIWQVKDQLPDLESMGL [MED7] returned a protein stability index (doa10∆) of 2.81 ± 0.11, a protein stability index (pdr5∆) of 3.04 ± 0.079, a protein stability index (san1∆) of 2.93 ± 0.12 and a protein stability index (ubr1∆) of 3.35 ± 0.097.

In the case of SKALNSILESSMFLRID [RGR1], the protein stability index stood at 2.42 ± 0.16 (doa10∆), 2.67 ± 0.11 (pdr5∆), 2.08 ± 0.11 (san1∆) and 2.83 ± 0.082 (ubr1∆).

SKDIETLKKEWLKEYED [YIL149C/MLP2] came in with a protein stability index (doa10∆) of 3.34 ± 0.093, a protein stability index (pdr5∆) of 3.16 ± 0.085, a protein stability index (san1∆) of 3.26 ± 0.053 and a protein stability index (ubr1∆) of 3.15 ± 0.051.

For SKGSFINIAQMSACVGQ [RPO21], the protein stability index by setting is: (doa10∆) 1.44 ± 0.059; (pdr5∆) 1.61 ± 0.053; (san1∆) 1.3 ± 0.082; (ubr1∆) 1.67 ± 0.051.

Regarding SKICLSHFSLDQFITSL [ITC1], the protein stability index came to 2.21 ± 0.06 (doa10∆), 2.86 ± 0.076 (pdr5∆), 2.17 ± 0.081 (san1∆) and 2.69 ± 0.057 (ubr1∆).

In turn, SKIFNESFPDDIPLAKA [CDC53] came in with a protein stability index (doa10∆) of 2.68 ± 0.056, a protein stability index (pdr5∆) of 2.89 ± 0.067, a protein stability index (san1∆) of 2.55 ± 0.049 and a protein stability index (ubr1∆) of 2.82 ± 0.037.
